Measurements published in patent publication US20160031999A1 (CSL, published 2016).
Numbering of substitutions follows the chain as printed.

What was measured:
[1] = target: T1, polypeptide of SEQ ID NO: 90 (amino acids 24 to 367 of mouse IL-11Rα, serine at position 206, 8×HIS tag) (mouse, UniProt Q64385 24-367); experiment: Biacore, antibody captured; N/B: no or ablated binding
T1 construct: also called soluble mIL-11Rα
T1 sequence: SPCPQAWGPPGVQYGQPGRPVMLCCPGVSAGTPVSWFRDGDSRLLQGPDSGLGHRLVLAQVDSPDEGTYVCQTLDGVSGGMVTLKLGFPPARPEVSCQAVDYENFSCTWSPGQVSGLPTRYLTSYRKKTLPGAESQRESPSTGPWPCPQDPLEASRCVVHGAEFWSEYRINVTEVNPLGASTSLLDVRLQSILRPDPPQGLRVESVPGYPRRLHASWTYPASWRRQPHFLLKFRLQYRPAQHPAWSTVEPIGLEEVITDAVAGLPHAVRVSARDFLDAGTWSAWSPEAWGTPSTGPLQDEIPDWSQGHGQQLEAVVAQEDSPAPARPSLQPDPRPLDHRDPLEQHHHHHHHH
Method: (§1) Various soluble forms of IL-11R comprising regions of hIL-11R and mIL-11R were produced and comprise sequences as set forth in SEQ ID NOs: 3 and 86-90 and the binding of antibodies 8E2, 8D10 and 8E4 to those polypeptides was determined using Western blotting or Biacore analysis.
(§2) For Biacore analysis, anti-human was IgG immobilized on the sensor surface at ˜10,000-12,000 RU and each antibody was captured at between 0.2 μg/ml and 0.5 μg/ml every cycle for 120 seconds. IL-11 receptors were injected over captured antibodies at varying concentrations, ranging from 1 μM down to 2.5 nM, including injections of buffer blanks. Association was monitored for 3-5 minutes, dissociation was monitored for 3-10 minutes. Approximate affinities were determined by fitting binding curves of each interaction to a 1:1 Kinetic Model.

[2] = target: T2, polypeptide of SEQ ID NO: 89 (mouse IL-11Rα 24-215 and human IL-11Rα 216-363, 8×HIS tag) (mouse and human (chimera), UniProt P70225 24-363); experiment: as above
T2 chain: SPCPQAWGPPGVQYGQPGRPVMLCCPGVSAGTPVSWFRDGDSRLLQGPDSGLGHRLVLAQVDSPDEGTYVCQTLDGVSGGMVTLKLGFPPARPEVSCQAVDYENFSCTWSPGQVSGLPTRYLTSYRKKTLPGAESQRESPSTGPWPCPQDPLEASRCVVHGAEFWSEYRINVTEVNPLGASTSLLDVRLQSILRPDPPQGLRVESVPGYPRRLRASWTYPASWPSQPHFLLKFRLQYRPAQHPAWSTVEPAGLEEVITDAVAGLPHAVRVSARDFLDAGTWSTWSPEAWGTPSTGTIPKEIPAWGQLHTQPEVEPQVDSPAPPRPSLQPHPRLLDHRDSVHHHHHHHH
Method: as §1, §2

[3] = target: T3, polypeptide of SEQ ID NO: 86 (human IL-11Rα 23-110 and mouse IL-11Rα 111-367, 8×HIS tag) (human and mouse (chimera), UniProt Q64385 23-367 (mouse entry)); experiment: as above
T3 chain: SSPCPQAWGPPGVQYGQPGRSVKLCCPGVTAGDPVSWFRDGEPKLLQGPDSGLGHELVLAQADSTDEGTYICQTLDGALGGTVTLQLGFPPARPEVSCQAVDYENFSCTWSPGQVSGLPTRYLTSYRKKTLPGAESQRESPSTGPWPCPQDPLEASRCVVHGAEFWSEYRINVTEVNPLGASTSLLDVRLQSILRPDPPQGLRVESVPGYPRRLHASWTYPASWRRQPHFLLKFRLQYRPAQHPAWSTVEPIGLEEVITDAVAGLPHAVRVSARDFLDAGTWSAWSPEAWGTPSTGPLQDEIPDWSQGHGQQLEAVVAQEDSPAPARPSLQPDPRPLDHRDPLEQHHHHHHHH
Method: as §1, §2

[4] = target: T4, V117E mutant of soluble human IL-11Rα (SEQ ID NO: 95) (human, UniProt Q14626 23-318); experiment: Biacore, antibody captured; * indicates undetectable binding
T4 construct: also called V95E
T4 sequence: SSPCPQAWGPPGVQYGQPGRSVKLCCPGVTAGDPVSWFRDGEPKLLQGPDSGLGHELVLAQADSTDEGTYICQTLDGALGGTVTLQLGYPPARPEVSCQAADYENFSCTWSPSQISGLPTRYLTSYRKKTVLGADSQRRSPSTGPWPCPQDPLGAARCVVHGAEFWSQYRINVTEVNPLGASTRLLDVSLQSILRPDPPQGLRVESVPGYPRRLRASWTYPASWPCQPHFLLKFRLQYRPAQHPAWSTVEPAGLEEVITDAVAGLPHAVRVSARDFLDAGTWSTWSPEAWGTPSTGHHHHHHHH
Method: Various point mutants of soluble forms of IL-11R were produced in which amino acids from mIL-11 were introduced into a soluble form of hIL-11 (SEQ ID NO: 85) (see Table 5 for positions of mutations relative to SEQ ID NO: 1 and for reference to the SEQ ID NO: of each polypeptide) and the binding of antibodies to those polypeptides or to polypeptides of SEQ ID NO: 3 or SEQ ID NO: 85 was determined using Biacore analysis or FACS.
(§3) Anti human IgG Fc specific antibody was chemically immobilized on a CM5 chip to ˜9000 RU. Antibodies were captured at about 0.3-1 μg/ml for 120 seconds on 2 spots in each flow cell. Adjacent spots consisting of only anti human IgG were used as a reference. IL-11 receptors were injected over the captured antibodies and reference spots at 40, 10, 5 and 2.5 nM in duplicate. Blank injections of buffer only were also performed in duplicate. Injection was performed for 3 minutes and dissociation monitored for a further 5 minutes.

[5] = target: T5, K66R mutant of soluble human IL-11Rα (SEQ ID NO: 96) (human, UniProt Q14626 23-318); experiment: Biacore
T5 construct: also called K44R
T5 sequence: T4 sequence with K44R, E95V
Method: as §3
The K66R mutation led to a decrease in KD of just over twofold when compared to WT D1/2 (SEQ ID NO: 85) for antibodies 8E2 and 8D10, indicating some involvement of this residue in antibody binding.

- binding result [1]: no binding
- binding result [2]: no binding
- binding result [3]: no binding
- binding result [4]: no binding
- fold change in KD compared to WT D1/2 (SEQ ID NO: 85) [5]: > 2 fold
B1: antibody 8D10 (antibody, human IgG4 S228P, kappa, V domains shown)
VH: EVQLLESGGGLVQPGGSLRLSCAASGFTFSRYMMGWVRQAPGKGLEWVSSIVPSGGITIYADSVKGRFTISRDNSKNTLYLQMNSLRAEDTAVYYCARDHMGIVATDWGQGTLVTVSS
VL: DIQMTQSPSSLSASVGDRVTITCQASQDITNYLNWYLHKPGKAPKLLIYDASNLQTGVPSRFSGSGSGTDFTFTITSLQPEDFGTYYCQQYDTLHPSFGPGTTVDIKR
